In general, Kd refers to the concentration at which binding is half-saturated. As a reminder, the koff is a measure of how fast the partners let go of each other. By kon is commonly meant the rate constant with which the complex forms.

These results are taken from patent US20210324054A1.

In the test the target is DN-IV quality control recombinant protein (produced by the company) (dengue virus). In words: BLI, antibody on AMC sensor. (BLI is a label-free optical method that tracks binding on a fibre tip over time.)

Where a chain is given by its changes, count along the chain named.

B1: Mutation 1-47 (antibody, V domains shown)
VH: EVQLQQPGPELVKPGASVKMSCKASGYTFTSYVIHWVRQKPGQGLEWIGYMNPYNDGIKYNEKFIGKAILTSDKSSSTAYMQLSSLTSEDSAVYYCTREGLFYVFDYWGQGTSVTVSS
VL: QIVLTQSPAIMSASPGEKVTMTCSATSSISYMHWYQQKSGTSPKRWIYDSSKLASGVPVRFSGSGSGTSYSLTISSMEAEDAATYFCQYWRSDLPTFGAGTKLELKR
B1: the Kd stood at 0.57 nM, the koff was 0.000211 s⁻¹ and the kon worked out at 370000 M⁻¹ s⁻¹.

B2: Mutation 1-18 (antibody, V domains shown)
VH: B1 VH with Y32T, I58L, R98K
VL: B1 VL with I29L
As for B2, the Kd came to 0.572 nM, the off-rate (koff) came to 0.000243 s⁻¹ and the association rate constant (kon) was 425000 M⁻¹ s⁻¹.

B3: WT 1-5 (antibody, V domains shown)
VH: B1 VH with F29V, P53A, I58L, E62D, R98K
VL: B1 VL with A25G, I29V, G56P, Y89W, D93V
As to B3, the Kd came out at 57.8 nM, the koff came to 0.000264 s⁻¹ and the association rate constant (kon) amounted to 4570 M⁻¹ s⁻¹.

B4: Mutation 1-17 (antibody, V domains shown)
VH: B1 VH with R98K, F105M
VL: B1 VL with I29V, Y89W
In the case of B4, the dissociation constant Kd worked out at 2.52 nM, the koff came to 0.000114 s⁻¹ and the on-rate constant (kon) came to 45200 M⁻¹ s⁻¹.

B5: Mutation 1-22 (antibody, V domains shown)
VH: B1 VH with Y32S, I58L
VL: B1 VL with I29V, Y89W
B5: the Kd came out at 0.59 nM, the dissociation rate constant (koff) worked out at 0.000245 s⁻¹ and the kon came to 415000 M⁻¹ s⁻¹.

B6: Mutation 1-9 (antibody, V domains shown)
VH: B1 VH with Y32T, I58L
VL: B1 VL
As to B6, the equilibrium dissociation constant (Kd) came to 0.66 nM, the koff came out at 0.000284 s⁻¹ and the on-rate constant (kon) is 430000 M⁻¹ s⁻¹.

B7: Mutation 1-5 (antibody, V domains shown)
VH: B1 VH
VL: B1 VL with I29V, Y89Q
B7: the Kd was determined as 0.508 nM, the off-rate constant (koff) was 0.000213 s⁻¹ and the kon was 419000 M⁻¹ s⁻¹.

B8: Mutation 1-49 (antibody, V domains shown)
VH: B1 VH with Y32S
VL: B1 VL with I29V, S50T, Y89Q
B8: the equilibrium dissociation constant (Kd) is 0.765 nM, the koff worked out at 0.000299 s⁻¹ and the on-rate constant (kon) is 391000 M⁻¹ s⁻¹.

B9: Mutation 1-51 (antibody, V domains shown)
VH: B1 VH with Y32T, I58L, F105M
VL: B1 VL with Y89W
For the molecule B9, the dissociation constant Kd turned out to be 0.5 nM, the dissociation rate constant (koff) is 0.000201 s⁻¹ and the kon was 402000 M⁻¹ s⁻¹.

B10: Mutation 1-4 (antibody, V domains shown)
VH: B1 VH with Y32S, I58L, R98K, F105M
VL: B1 VL with I29L, S50T, Y89W
Turning to B10, the Kd was determined as 0.478 nM, the off-rate constant (koff) was determined as 0.000234 s⁻¹ and the kon is 490000 M⁻¹ s⁻¹.

B11: Mutation 1-19 (antibody, V domains shown)
VH: B1 VH with Y32S, F105M
VL: B1 VL with I29V, S50T, Y89Q
Consider B11, for which the equilibrium dissociation constant (Kd) was determined as 2.41 nM, the koff came to 0.000113 s⁻¹ and the kon stood at 46800 M⁻¹ s⁻¹.

B12: WT 1-11 (antibody, V domains shown)
VH: B1 VH with F29V, Y32T, P53A, E62D, F105M
VL: B1 VL with A25G, S50T, G56P, D93V
Regarding B12, the Kd is 57.1 nM, the off-rate (koff) was 0.000244 s⁻¹ and the kon came to 4270 M⁻¹ s⁻¹.

B13: Mutation 1-16 (antibody, V domains shown)
VH: B1 VH with Y32S, I58L, F105M
VL: B1 VL with I29L, S50T, Y89W
Regarding B13, the Kd came to 3.38 nM, the koff is 0.000124 s⁻¹ and the on-rate (kon) worked out at 36700 M⁻¹ s⁻¹.

B14: Mutation 1-53 (antibody, V domains shown)
VH: B1 VH with F105M
VL: B1 VL with I29V, S50T
Consider B14, for which the Kd worked out at 2.71 nM, the koff is 0.000115 s⁻¹ and the kon is 42500 M⁻¹ s⁻¹.

B15: WT 1-14 (antibody, V domains shown)
VH: B1 VH with F29V, Y32S, P53A, I58L, E62D
VL: B1 VL with A25G, I29L, G56P, Y89W, D93V
For the molecule B15, the dissociation constant (Kd) was found to be 45.6 nM, the koff worked out at 0.000188 s⁻¹ and the on-rate constant (kon) worked out at 4120 M⁻¹ s⁻¹.

B16: Mutation 1-13 (antibody, V domains shown)
VH: B1 VH with Y32S, I58L
VL: B1 VL with I29L, Y89W
Take B16: the dissociation constant (Kd) was 3.47 nM, the dissociation rate constant (koff) was found to be 0.000151 s⁻¹ and the kon worked out at 43500 M⁻¹ s⁻¹.

B17: Mutation 1-48 (antibody, V domains shown)
VH: B1 VH with Y32T, I58L, R98K, F105M
VL: B1 VL with I29L, Y89W
As to B17, the dissociation constant (Kd) worked out at 0.665 nM, the off-rate (koff) was 0.000248 s⁻¹ and the kon was 373000 M⁻¹ s⁻¹.

B18: WT 1-19 (antibody, V domains shown)
VH: B1 VH with F29V, P53A, E62D, R98K, F105M
VL: B1 VL with A25G, I29V, G56P, Y89Q, D93V
For B18, the equilibrium dissociation constant (Kd) stood at 35.4 nM, the koff turned out to be 0.000162 s⁻¹ and the kon is 4570 M⁻¹ s⁻¹.

B19: Mutation 1-11 (antibody, V domains shown)
VH: B1 VH with I58L, R98K
VL: B1 VL with I29V, Y89Q
With B19, the dissociation constant (Kd) amounted to 0.725 nM, the off-rate constant (koff) is 0.0003 s⁻¹ and the kon turned out to be 414000 M⁻¹ s⁻¹.

B20: Mutation 1-52 (antibody, V domains shown)
VH: B1 VH with Y32S, I58L, R98K
VL: B1 VL with I29L, Y89Q
Consider B20, for which the Kd was found to be 3.02 nM, the koff is 0.000124 s⁻¹ and the kon stood at 41000 M⁻¹ s⁻¹.

B21: Mutation 1-6 (antibody, V domains shown)
VH: B1 VH with Y32T, R98K, F105M
VL: B1 VL with S50T
On to B21, for which the equilibrium dissociation constant (Kd) was found to be 0.499 nM, the koff was 0.000249 s⁻¹ and the association rate constant (kon) was 499000 M⁻¹ s⁻¹.

B22: Mutation 1-20 (antibody, V domains shown)
VH: B1 VH with I58L, R98K
VL: B1 VL
On to B22, for which the equilibrium dissociation constant (Kd) was 3.53 nM, the koff was determined as 0.000161 s⁻¹ and the kon is 45600 M⁻¹ s⁻¹.

B23: Mutation 1-12 (antibody, V domains shown)
VH: B1 VH with Y32T, F105M
VL: B1 VL with S50T
B23: the equilibrium dissociation constant (Kd) turned out to be 2.86 nM, the koff turned out to be 0.000122 s⁻¹ and the kon came to 42600 M⁻¹ s⁻¹.

B24: Mutation 1-7 (antibody, V domains shown)
VH: B1 VH with Y32S, I58L, R98K
VL: B1 VL with I29L, Y89W
For B24, the equilibrium dissociation constant (Kd) turned out to be 0.652 nM, the dissociation rate constant (koff) amounted to 0.00024 s⁻¹ and the kon is 368000 M⁻¹ s⁻¹.

B25: Mutation 1-3 (antibody, V domains shown)
VH: B1 VH with Y32T
VL: B1 VL
Turning to B25, the Kd came out at 2.9 nM, the dissociation rate constant (koff) is 0.000119 s⁻¹ and the on-rate constant (kon) is 41100 M⁻¹ s⁻¹.

B26: Mutation 1-10 (antibody, V domains shown)
VH: B1 VH with Y32S, R98K, F105M
VL: B1 VL with I29L, S50T, Y89W
B26: the Kd came out at 2.65 nM, the koff came out at 0.000129 s⁻¹ and the kon stood at 48700 M⁻¹ s⁻¹.

B27: Mutation 1-15 (antibody, V domains shown)
VH: B1 VH with Y32T, R98K
VL: B1 VL
As for B27, the dissociation constant (Kd) came out at 3.79 nM, the koff amounted to 0.00017 s⁻¹ and the kon was 44800 M⁻¹ s⁻¹.

B28: Mutation 1-50 (antibody, V domains shown)
VH: B1 VH with I58L, R98K
VL: B1 VL with S50T
Take B28: the Kd was determined as 3.79 nM, the koff came out at 0.000167 s⁻¹ and the kon came out at 44100 M⁻¹ s⁻¹.

B29: Mutation 1-8 (antibody, V domains shown)
VH: B1 VH with F105M
VL: B1 VL with I29V, S50T, Y89Q
For the molecule B29, the equilibrium dissociation constant (Kd) worked out at 4.08 nM, the koff is 0.000172 s⁻¹ and the on-rate constant (kon) turned out to be 42200 M⁻¹ s⁻¹.

B30: Mutation 1-2 (antibody, V domains shown)
VH: B1 VH with I58L, F105M
VL: B1 VL with I29V, S50T, Y89Q
Regarding B30, the dissociation constant (Kd) worked out at 2.79 nM, the off-rate constant (koff) is 0.000116 s⁻¹ and the on-rate constant (kon) was 41600 M⁻¹ s⁻¹.

B31: Mutation 1-1 (antibody, V domains shown)
VH: B1 VH with Y32S, R98K
VL: B1 VL with I29L, Y89W
Consider B31, for which the dissociation constant (Kd) was 0.445 nM, the off-rate constant (koff) turned out to be 0.000181 s⁻¹ and the kon turned out to be 407000 M⁻¹ s⁻¹.

B32: Mutation 1-14 (antibody, V domains shown)
VH: B1 VH with R98K, F105M
VL: B1 VL with I29V, Y89Q
B32: the Kd worked out at 2.75 nM, the koff is 0.00012 s⁻¹ and the on-rate constant (kon) came to 43600 M⁻¹ s⁻¹.

B33: Mutation 1-21 (antibody, V domains shown)
VH: B1 VH with Y32T, F105M
VL: B1 VL with I29L, S50T, Y89W
For B33, the Kd turned out to be 0.693 nM, the koff came to 0.000269 s⁻¹ and the kon came out at 388000 M⁻¹ s⁻¹.
